Experiment: label from the status in PepcDB records
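Note: failed if final PepcDB status was selected cloned or expressed and not failed if soluble or beyond.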

Row | Sequence | protein production
1 | MQTEIITQLVLIFPEILIALGGITLLLFGVYSKASSSLTVTGLAIALFVATIVIIIIFPKSGLFQTNALIIDSFGRYMKILTLIGALFALIMSVNFTSTQKFDIFEFPVLVLLATLGMMLMISAGNMLSLYMGLELQSLALYVLAAINRNNIKSSEAGIKYFALGALSSGLLLYGISLVYGFTGQIGFREIAVALKGENLPLGVIFGIVFILAGLAFKISAVPFHMWTPDVYEGAPTPITAFFAGAPKVAAMALIVRIIVMTFIPLENTDGSMPAWQQILVFMAIASMILGAFAAIGQSNIKRLMAYSSISHMGYALVGLASGDMLGIKSVILYMTIYLSMTIGSFAFILGMRSSDGNVEDIYDLSGLVKTNPFMAITMTIQLFSLASIPPMAGFFGKWYTFSAAVHAGLTPLAIVGMIASVVGAFYYLRLIKIMWFDDAKAHFIVLSNEFRFCLSFSAFFILSYTLFGIWFADLAERAATALF | failed
2 | MQTKVINFNDKFSLFNQHWSPRVIAEMNDYQFKLVKVEGEFVWHEHADTDEVFIVMEGTLQIAFRDQNITLQAGEMYVIPKGVEHKPMAKEECKIMIIEPR | not failed
3 | MQTLNVLDNRFSPFNTYSTLSTDALVAETFTNTIFDKRQILALMTQLQTTLDIDELLSIFAVEATRYVDFSGLYFKSQNLNTVLFGSRKAKKEQCFELKIEDNFIGTLSYGINSPISLTNFKVLEQLHLCLLHPIKNAIAYHTAMQLAMQDGLTGLGNRRYFDEQLKRSMHNANRHHSLVGLVLGDLNKFKAINDTHGHIAGDTVLQEFANVLRLCTRDSDSLFRFGGDEFAIIVENANDTALAIIENRINLALASNVQLNKYQLGCSIGSTFMNRADNELSFFERADEILYRRKMQVSSHLSVV | failed
4 | MQTSNITNHERNDSSWMSTVKSTTEVSWNKLSFCDILLKIITFGIYSPHETLAEKHSEKKLMDSFSPSLSQDKMDGEFAHANIDGISIRLCLNKGICSVFYLDGDKIQSTQLSSKEYNNLLSSLPPKQFNLGKVHTITAPVSGNFKTHKPAPEVIETAINCCTSIIPNDDYFHVKDTDFNSVWHDIYRDIRASDSNSTKIYFNNIEIPLKLIADLINELGINEFIDSKKELQMLSYNQVNKIINSNFPQQDLCFQTEKLLFTSLFQDPAFISALTSAFWQSLHITSSSVEHIYAQIMSENIENRLNFMPEQRVINNCGHIIKINAVVPKNDTAISASGGRAYEVSSSILPSHITCNGVGINKIETSYLVHAGTLPSSEGLRNAIPPESRQVSFAIISPDV | not failed
5 | MQTTEIDLRLTEVSQQLTMVLVPGLRDSDDEHWQSHWERRFPHWQRIRQREWYQADLDRWVLAIRRELSVCTQPVILIGHSFGALAACHVVQQGQEGIAGVMLVAPAEPMRFEIDDRIQASPLSVPTLTFASHNDPLMSFTRAQYWAQAWDSELVDVGEAGHINAEAGFGPWEYGLKRLAEFSEILIPNR | not failed
6 | MQTVPSSDGTPIAFERSGSGPPVVLVGGALSTRAGGAPLAERLAPHFTVICYDRRGRGDSGDTPPYAVEREIEDLAAIIDAAGGAAFVFGMSSGAGLSLLAAASGLPITRLAVFEPPYAVDDSRPPVPPDYQTRLDALLAEGRRGDAVTYFMTEGVGVPPDLVAQMQQAPMWPGMEAVAHTLPYDHAVMGDNTIPTARFASISIPTLVMDGGASPAWIRHTAQELADTIPNARYVTLENQTHTVAPDAIAPVLVEFFTR | not failed
7 | MQVRIERAERIESELEEHVGDQTFVEESRFLEEDEQREGEILDQIIFVDGKRRSFVRITTDEGITGIFAELCVGAVIWDREGGTKTLFSPDKPPVKERVLGFSQSFQEEGYEEVGGILFKVVKEGKDAMQSIDLYMRSLEIEEVRKHMDKNILIVKDGPAARELPFEENVGPIGLVKNIGVTELSKEDFKKLRFLKKGKRSKMFVSSRETPLKKVGAYVKLIDGEGIRGLVRLETYVKDDNQIPYIRKVFDDLAKTLPHLTADLPIPRLPENILPIQFLEENLSYYLTDKNYMNTRLFAYIGR | not failed
8 | MQVTADAVPKLNRAAVAAGSADIDAVSGATYTSAGYVKSLQSALDKAAAAAGPAAQESSGADSGSGGGGRSEGDAGQGTQVLTGDAAQTQYGPVQVRVTVSGGRITDVEALQAPKGGRSDQVTADAVPRLNRAAVAAGTADIDAVSGATYTSAGYTQSLQSALDRAGGLEHHHHHH | failed
9 | MQWANLALFLTEAIVYFSVMTAFLHYRHILGIGVFLTALGVMHFLETYLAAVFYVQLPFGVASPGSSILFAGKLMMILMLYMREDAAVVRQPIYGLFLGNILTVIMAQIIRFHQTVAIVPGQSVSTGFLDEMGILMVWGTSLLYIDAIAIILFYEKLGRYLQRHIVLRFAICGVVILSFDQAGFYGALRLLFNAPVDVFYDGWKAKMAAVGIYSLLFATYLWLTAAKGRFLTRRSVADVFNDLTFRERYEELLSRSGRDMLTGVSDRARMELDAPSLVVECLEKRRPVSVLIVDIDHFKTVNDTFGHLQGDEILREFAAVLKRAVQPLGHLYRFGGEEFVALLPAMTHETALAFSASLRVAVLAELQRPDGSPLTVSIGVATAFEDGQLFRALLSEADAWLYAAKNNGRDQVHGRHGMWVG | failed
10 | MQWIYLCFAILFEVAGTTAMKLSDGLTKLVPSILIFVFYVVSFAFLSFALKGMEMSVAYAVWSGMGIVTITTIGFIYFGESINIIKILAILFILVGVVILNFNSTAHEAKKKEMVEERIH | failed
11 | MQYIFSIISGIIVGFSLGLIGGGGSILAIPLLIYFVGIKNPHLVIGTTALAVGINALINVYSHLRKKNVSLRTGAIFTVFGILGVLLGTTLGLITPGGKLLFLFSFLMIVIGAYMFITKCKTCKNYDAIPKKNNNDDPPDPPKKGLWQKIKLEVFGVLAGFASGYFGIGGGFLIVPALLYSADITMNLAVGTSLMSVGTFGLVTALRYGIAGKVLVTIALLYVLGGIFGGYAGAKLSSSMKRSTLRRFFSLIIIVVGIYMAIESFSAVF | failed
12 | MQYIKQIMLLVILTISWKCQAEEVKEIWLDELGESSYYIQDWGLPRINKAVTMTPLTVKGIVYERGIGTHAISRMLFDIGKKAKTLSGLAGADDNTPFACNLQFKILGDRKELWRSGIMRKGDPAKPFNIDLSGIDKVLLLVEECGDGMMYDRADWLNVKFTTLGDVQPIPVWPKPIAKEKYILTPQSPDAPQINNPLTYGARPGNPFLMPIMVSGKRPMTYKAKGLPKGLKLNRKTGLITGSTNTNGNFKVRLQATNEKGTDEKEITLKIGSEIMLTPPMGWNSWNCWRFAADDQKVRDAARIMHEKLQAYGWTYVNIDDGWEADERTPEGELPANEKFPDFKTLTDYIHSLGLKFGIYSSPGWTTCGRHIGSCQHELTDAKTWEKWGVDYLKYDYCGYAAIEKNSEEKTIQEPFIVMRNALDQIKRDIVYCVGYGAPNVWNWGAEAGGNLWRTTRDINDQWNIVMAIGCFQDVCAYVSAPGKYNDPDMLVVGKLGPGWGAKSHDSDLTADEQYAHISLWSILSAPLLLGCDMTAIDDFTLGLLTNPEVIAVNQDPLVAPATKLTVPNGQIWYKKLYDGSYALGFFQMDPYFILWDQDKAVNIQQQKYNFNFALNQLGIQGKVKIRDLWRQKNLGIFSGSYETSIPYHGVSLIKITPIK | failed
13 | MQYQGRSKRSKTGARLRPRSKKSKSELGREPTETTVGEPRFRTVDVRGDAEKVRVLSTNVVNVATDSGAERATIEDVSANDANPNYARRNIITKGAIIETDAGTARVTSRPGQDGQVNATRVDE | failed
14 | MRAAFRTLGCKVNQVETEALLGFLKALEPEVVPLEAGGADLVVINSCAVTTTAEADTRKEVRRARRYNPHAFIVVTGCYAELAPEVLKELGADAVVPNARKAELPRVILERFGLPSDPITTPPNEFWGAGERGLLNSRVRAFLKVQDGCQAGCAYCIIPRLRGKERHRDHREALAEAEALLRMGIKEIVLTGVRLGSYKGHPRGLAGLVEDLYHLGAKVRLSSIEPEDTGEDLLKVIGRYAPEVRPHLHLSLQTGSDRLLKLMGRRYDKAYYRELVQRAYDLIPGFALTTDVIAGLPTETEEEHRETLAFLEELRPTRVHAFTYTPRPKTRAASMPQVPPEVRKRRTKELIALAQRLAEERIRPRLGERVEVLVERVQGGEALGHTPDYYEARLEGEARPGETVWARVHGVEGYVLLGRVEGVKEGARGPLELPVRLEHHHHHH | failed
15 | MRAASTSKPVGAHEETGHLGGAHSTYVSSAQVTNAEHENELQVVDLPRAPPSLSKAVTYFYITGFGRFALMEDNPTERVVLRLREILQDPGRVQMLHERLVRIVDLRILEVSAAAAHETLAEMKTQCLQMRQKPNISSDGRNRTVCFLHLGVDASADGFLVERSAVNEALFRFPDERGWQPTTPIPIVRGAQLGARYELDGEALASLCERTESLLNEWGRTNWTVRVNDDAGRFLCNYLFYLSAFEGLAENGHHLWQTFFLHCPMETVAPLDVQVDVVLAFMVAVAQSNAQQGPLEGILAR | not failed
16 | MRAGFFVGILGLAGAILQGANVTEAVGSELVLFPSGGGLSAIAAIVALLTAAVLVAVGIFTGYPIATAFTVTGAVVGVGLAMGGQPATAKYIEIVSLWVLTPFVGGGIAFGTAWSLRHEATTEERLVPLLGGLVGVILANIEFVLLAPGSEQASVARAVARAAGTPIFPSMVVVTLLIGVLAGGLLYLDIRADAAAGQRHFLLVMGGLVAFSAGGSQVGLALGPLVPLLGEGPTAAIPITGVLLFGGLGLLVGSWTGAPRMIKALAQDYSSLGPRRSIGALIPSFIIAQAAVFFGIPVSFNEIIVSAIVGSGAAAGGGEVSREKMGKTVLAWIGSLALAFALSYGLFWIIDAAL | failed
17 | MRAGIVGSGIMGRLLAFVLHNAGWQVSLFDRSNESMNCSTAAAGLLTPFSELDKSILLISTLGQESIKNCWPRIIEDLPESVYFQQSGSLVLCHPGDQAEWIHFSRRILSQLNPSNSVFQKLSHENLIALEPELTKFETAYYFPNEAHIDCQTLMLSLKNYLDSVCIPHITNTPVLSLKPGEINTKEQRYHFDVVFDCRGLGAQNVFSDLRGIRGELIWLHAPGVQLHRPIRLLHPRYSLYLVPRPGNFYLIGASEIEAEDFSPVSVRTALELLTAVYYLHRNFDEARIIKTVTHCRPTLVNHLPRIKFADGLIAVNGLYRHGYLIAPALAEEILRGVTSNFRHLNYPELWENYCDLEHHHHHH | failed
18 | MRAHTLSRQLREGNLFAEQCPSREVLKHVTSRWGVLILVALRDGTHRFSDLRRKMGGVSEKMLAQSLQALEQDGFLNRVSYPVVPPHVEYSLTPLGEQVSDKVAALADWIELNLPQVLAQRERLSDGG | not failed
19 | MRAILILLDGLGDRASEILNNKTPLQFAKTPNLDRLAENGMCGLMTTYKEGIPLGTEVAHFLLWGYSLEEFPGRGVIEALGEDIEIEKNAIYLRASLGFVKKDEKGFLVIDRRTKDISREEIEKLVDSLPTCVDGYKFELFYSFDVHFILKIKERNGWISDKISDSDPFYKNRYVMKVKAIRELCKSEVEYSKAKDTARALNKYLLNVYKILQNHKINRKRRKLEKMPANFLLTKWASRYKRVESFKEKWGMNAVILAESSLFKGLAKFLGMDFIKIESFEEGIDLIPELDYDFIHLHTKETDEAAHTKNPLNKVKVIEKIDKLIGNLKLREDDLLIITADHSTPSVGNLIHSGESVPILFYGKNVRVDNVKEFNEISCSNGHLRIRGEELMHLILNYTDRALLYGLRSGDRLRYYIPKDDEIDLLEG | failed
20 | MRAKITYAVTAAVLVVYFVLVGSRGVLLIQNGTLVTVTFGVAVLILPVIGVWFLWKNTQFVRKANALAAELDAEGGLPVDELRRTPGGRIDRDSADEVFARRKAETEDAPGDWRSWFRLAVAYHDARDTPRARKAMQRAIALHEGRPVEA | failed

Reference: a protein production outcome set (Wang et al. 2014)
